Blank lines part the entries; values can stand above or below the binder they belong to.
What was measured:
[1] = target: T1, rHuman Erythropoietin R/Fc Chimera, CF (R&D Systems Cat#963-ER) (human, UniProt P19235 25-250); assay: MSD multispot ECL, antigen spotted on plate; Fab 0.03188 uM; blank spot 536
T1 construct: Bought recombinant protein; also called EPO R/Fc; Epo R; Fc part of the bought chimera not given
T1 sequence (looked up): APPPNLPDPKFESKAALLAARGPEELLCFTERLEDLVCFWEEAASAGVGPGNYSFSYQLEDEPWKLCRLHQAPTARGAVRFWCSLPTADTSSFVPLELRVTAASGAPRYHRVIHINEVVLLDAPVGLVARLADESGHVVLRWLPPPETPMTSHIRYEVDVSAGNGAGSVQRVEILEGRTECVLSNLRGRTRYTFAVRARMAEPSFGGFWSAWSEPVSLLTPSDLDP

[2] = target: T2, Recombinant Human DLL4 (R&D Systems Cat#1506-D4/CF) (human, UniProt Q9NR61 27-524); assay: as above
T2 construct: Bought recombinant protein; also called delta-like protein 4; rHuman DLL4

[3] = target: T3, rHuman ErbB2/Fc Chimera, CF (R&D Systems Cat#1129-ER) (human, UniProt P04626 23-652); assay: as above
T3 construct: Bought recombinant protein; also called human epidermal growth factor 2 receptor; Fc part of the bought chimera not given

[4] = target: T4, rHuman EGF R/Fc Chimera, CF (R&D Systems Cat#344-ER) (human, UniProt P00533 25-645); assay: as above
T4 construct: Bought recombinant protein; also called epidermal growth factor receptor; Fc part of the bought chimera not given

[5] = target: T5, rHuman HGF R/c-MET/Fc Chimera, CF (R&D Systems Cat#358-MT/CF) (human, UniProt P08581 25-932); assay: as above
T5 construct: Bought recombinant protein; also called HGF R/Fc; hepatocyte growth factor receptor; Fc part of the bought chimera not given

[6] = target: T6, rHuman Notch-1/Fc Chimera, CF (R&D Systems Cat#3647-TK) (human, UniProt P46531 19-526); assay: as above
T6 construct: Bought recombinant protein; Fc part of the bought chimera not given

[7] = target: T7, rHuman CD44/Fc Chimera, CF (R&D Systems Cat#3660-CD) (human, UniProt P16070 21-220); assay: as above
T7 construct: Bought recombinant protein; Fc part of the bought chimera not given

[8] = target: T8, rHuman IGF-1 sR, CF (R&D Systems Cat#391-GR) (human, UniProt P08069 31-932); assay: as above
T8 construct: Bought recombinant soluble receptor; also called insulin-like growth factor-1 soluble receptor

[9] = target: T9, rHuman P-Cadherin/Fc Chimera, CF (R&D Systems Cat#861-PC) (human, UniProt P22223 108-654); assay: as above
T9 construct: Bought recombinant protein; Fc part of the bought chimera not given

[10] = target: T10, Recombinant Human DLL4 (R&D Systems Cat#1506-D4/CF) (human, UniProt Q9NR61 27-524); assay: MSD Multispot ECL, antigen spotted on plate, Fab at 3.8 nM; blank spot 198
T10 construct: Bought recombinant protein; also called rHuman DLL4; delta-like protein 4

[11] = target: T11, rHuman Notch-1/Fc Chimera, CF (R&D Systems Cat#3647-TK) (human, UniProt P46531 19-526); assay: as above
T11 construct: Bought Fc chimera; Fc part of the bought chimera not given

[12] = target: T12, rHuman P-Cadherin/Fc Chimera, CF (R&D Systems Cat#861-PC) (human, UniProt P22223 108-654); assay: as above
T12 construct: Bought Fc chimera; Fc part of the bought chimera not given

[13] = target: T13, rHuman Erythropoietin R/Fc Chimera, CF (R&D Systems Cat#963-ER) (human, UniProt P19235 25-250); assay: as above
T13 construct: Bought Fc chimera; also called EPO R/Fc; Epo R; Fc part of the bought chimera not given
T13 sequence (looked up): T1 sequence (looked up)

[14] = target: T14, Recombinant Human DLL4 (R&D Systems Cat#1506-D4/CF) (human, UniProt Q9NR61 27-524); assay: Multispot ECL (MSD), antigen spotted on plate, Fab 31.3 nM; blank spot 250
T14 construct: Bought recombinant protein; also called rHuman DLL4; delta-like protein 4

[15] = target: T15, rHuman Notch-1/Fc Chimera, CF (R&D Systems Cat#3647-TK) (human, UniProt P46531 19-526); assay: as above
T15 construct: Bought recombinant protein; Fc part of the bought chimera not given

[16] = target: T16, rHuman IGF-1 sR, CF (R&D Systems Cat#391-GR) (human, UniProt P08069 31-932); assay: as above
T16 construct: Bought recombinant soluble receptor; also called insulin-like growth factor-1 soluble receptor

[17] = target: T17, rHuman Erythropoietin R/Fc Chimera, CF (R&D Systems Cat#963-ER) (human, UniProt P19235 25-250); assay: as above
T17 construct: Bought recombinant protein; also called EPO R/Fc; Epo R; Fc part of the bought chimera not given
T17 sequence (looked up): T1 sequence (looked up)

[18] = target: T14, Recombinant Human DLL4 (R&D Systems …); assay: Multispot ECL (MSD), antigen spotted on plate, Fab 62.5 nM; blank spot 268
[19] = target: T15, rHuman Notch-1/Fc Chimera, CF (R&D …); assay: as above

T5 sequence (P08581 25-932, change not shown): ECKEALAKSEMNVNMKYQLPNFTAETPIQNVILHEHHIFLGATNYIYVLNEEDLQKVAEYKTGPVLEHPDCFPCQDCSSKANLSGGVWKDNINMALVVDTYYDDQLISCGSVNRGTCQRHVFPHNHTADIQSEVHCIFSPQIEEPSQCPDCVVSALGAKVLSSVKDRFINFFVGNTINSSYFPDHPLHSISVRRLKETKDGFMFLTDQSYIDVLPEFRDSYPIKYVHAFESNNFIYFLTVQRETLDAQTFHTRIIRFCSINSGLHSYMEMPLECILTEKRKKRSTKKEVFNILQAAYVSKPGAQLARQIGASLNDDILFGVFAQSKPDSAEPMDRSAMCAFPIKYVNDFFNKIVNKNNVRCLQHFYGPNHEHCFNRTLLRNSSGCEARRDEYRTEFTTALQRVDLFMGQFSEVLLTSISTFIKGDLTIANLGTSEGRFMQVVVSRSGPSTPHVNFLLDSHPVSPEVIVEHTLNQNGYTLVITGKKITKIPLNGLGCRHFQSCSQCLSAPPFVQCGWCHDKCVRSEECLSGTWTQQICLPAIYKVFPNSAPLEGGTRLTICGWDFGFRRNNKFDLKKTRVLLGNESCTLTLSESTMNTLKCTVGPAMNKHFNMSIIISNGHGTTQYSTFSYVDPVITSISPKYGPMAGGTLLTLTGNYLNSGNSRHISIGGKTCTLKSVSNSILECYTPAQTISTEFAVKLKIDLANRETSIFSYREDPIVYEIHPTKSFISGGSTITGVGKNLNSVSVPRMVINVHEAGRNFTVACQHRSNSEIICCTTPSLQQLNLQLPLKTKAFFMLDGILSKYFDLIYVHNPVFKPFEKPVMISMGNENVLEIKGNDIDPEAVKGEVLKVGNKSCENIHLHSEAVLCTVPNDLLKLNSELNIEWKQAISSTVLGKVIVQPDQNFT

- ECL signal [1]: 789
- ECL signal [2]: 1280
- ECL signal [3]: 584
- ECL signal [4]: 694
- ECL signal [5]: 693
- ECL signal [6]: 849
- ECL signal [7]: 653
- ECL signal [8]: 765
- ECL signal [9]: 775
B1: Fab VH4-34_IGHD7-27*01_IGHJ4*01 & L5_IGKJ1*01 (Fab, V domains shown)
VH: QVQLQQWGAGLLKPSETLSLTCAVYGGSFSGYYWSWIRQPPGKGLEWIGEINHSGSTNYNPSLKSRVTISVDTSKNQFSLKLSSVTAADTAVYYCARANWGDYFDYWGQGTLVTVSS
VL: DIQMTQSPSSVSASVGDRVTITCRASQGISSWLAWYQQKPGKAPKLLIYAASSLQSGVPSRFSGSGSGTDFTLTISSLQPEDFATYYCQQANSFPPWTFGQGTKVEIKR
notes: Germline library Fab expressed in E. coli; VH was cloned into Plasmid A, which adds CH1 with His6 and Flag tags

- ECL signal [10]: 462
- ECL signal [11]: 383
- ECL signal [12]: 281
- ECL signal [13]: 407
B2: Fab VH6-1_IGHD3-3*01_IGHJ4*01 & V4-3_IGLJ4*01 (Fab, V domains shown)
VH: QVQLQQSGPGLVKPSQTLSLTCAISGDSVSSNSAAWNWIRQSPSRGLEWLGRTYYRSKWYNDYAVSVKSRITINPDTSKNQFSLQLNSVTPEDTAVYYCAREYYDFWSGYYTDYFDYWGQGTLVTVSS
VL: QPVLTQPTSLSASPGASARLTCTLRSGINLGSYRIFWYQQKPESPPRYLLSYYSDSSKHQGSGVPSRFSGSKDASSNAGILVISGLQSEDEADYYCMIWHSSASFVFGGGTQLIIL
notes: Tested as a purified germline Fab made in E. coli; The VH was cloned into plasmid A (CH1 constant region, His6 and Flag tags) and the lambda VL into plasmid E (lambda CL)

- ECL signal [14]: 528
- ECL signal [15]: 563
- ECL signal [16]: 385
- ECL signal [17]: 7880
- ECL signal [18]: 715
- ECL signal [19]: 536
B3: Fab VH1-46_IGHD6-13*01_IGHJ4*01 & B3_IGKJ1*01 (Fab, V domains shown)
VH: QVQLVQSGAEVKKPGASVKVSCKASGYTFTSYYMHWVRQAPGQGLEWMGIINPSGGSTSYAQKFQGRVTMTRDTSTSTVYMELSSLRSEDTAVYYCAREGYSSSWYDYFDYWGQGTLVTVSS
VL: not shown
notes: Germline Fab made in E. coli; VH was cloned into Plasmid A (CH1, His6 and Flag tags) and the kappa VL into Plasmid C (kappa CL)
